Here are results for nine molecules from patent US20140044713A1 (KONINKLIJKE NEDERLANDSE AKADEMIE VAN WETENSCHAPPEN, published 2014).

Assay [1] concerns the target T1, Lgr4 (endogenous, or expression construct whose tag is not stated) (human, UniProt Q9BXB1 25-951).
T1 construct: whole, on cells; Endogenous protein of HEK293T / LS174T cells in TAP-MS; also called endogenous Lgr4
The experiment in a line: TAP + mass spectrometry, HEK293 cells.

In a further assay the target is T2, LRP5 (endogenous) (human, UniProt O75197 32-1615).
T2 construct: whole, on cells
The experiment in a line: TAP + mass spectrometry, HEK293 cells.

In the next assay the target is T3, LRP6 (endogenous) (human, UniProt O75581 20-1613).
T3 construct: whole, on cells
The experiment in a line: TAP + mass spectrometry, HEK293 cells.

Assay [2] has as its target T4, Frz7 (endogenous, LS174T cells) (human, UniProt O75084 33-574).
T4 construct: whole, on cells
The experiment in a line: TAP (anti-FLAG, anti-HA) + mass spectrometry, bait stably expressed in LS174T cells, Exp 3-6. As to the method:
(§1) Left panel (Exps 1-7): HEK293T cells were transiently transfected, and LS174T cells were stably, transfected with the indicated tagged proteins. Right panel (Exps 8-9): HEK293T cells were incubated with the indicated tagged soluble proteins at 1 μg/ml. Sequential immunoprecipitation was performed by anti-FLAG and anti-HA antibodies and the associated complexes were analysed by mass spectrometry. Number of assigned spectra, number of unique peptides and the MASCOT Protein Score are given for selected identified proteins.

Assay [3] concerns the target T1, Lgr4 (endogenous, or expression …). The experiment in a line: TAP (anti-FLAG, anti-HA) + mass spectrometry, 293T cells incubated with the soluble tagged bait, Exp 8. As to the method: as §1

T3 sequence (O75581 20-1613): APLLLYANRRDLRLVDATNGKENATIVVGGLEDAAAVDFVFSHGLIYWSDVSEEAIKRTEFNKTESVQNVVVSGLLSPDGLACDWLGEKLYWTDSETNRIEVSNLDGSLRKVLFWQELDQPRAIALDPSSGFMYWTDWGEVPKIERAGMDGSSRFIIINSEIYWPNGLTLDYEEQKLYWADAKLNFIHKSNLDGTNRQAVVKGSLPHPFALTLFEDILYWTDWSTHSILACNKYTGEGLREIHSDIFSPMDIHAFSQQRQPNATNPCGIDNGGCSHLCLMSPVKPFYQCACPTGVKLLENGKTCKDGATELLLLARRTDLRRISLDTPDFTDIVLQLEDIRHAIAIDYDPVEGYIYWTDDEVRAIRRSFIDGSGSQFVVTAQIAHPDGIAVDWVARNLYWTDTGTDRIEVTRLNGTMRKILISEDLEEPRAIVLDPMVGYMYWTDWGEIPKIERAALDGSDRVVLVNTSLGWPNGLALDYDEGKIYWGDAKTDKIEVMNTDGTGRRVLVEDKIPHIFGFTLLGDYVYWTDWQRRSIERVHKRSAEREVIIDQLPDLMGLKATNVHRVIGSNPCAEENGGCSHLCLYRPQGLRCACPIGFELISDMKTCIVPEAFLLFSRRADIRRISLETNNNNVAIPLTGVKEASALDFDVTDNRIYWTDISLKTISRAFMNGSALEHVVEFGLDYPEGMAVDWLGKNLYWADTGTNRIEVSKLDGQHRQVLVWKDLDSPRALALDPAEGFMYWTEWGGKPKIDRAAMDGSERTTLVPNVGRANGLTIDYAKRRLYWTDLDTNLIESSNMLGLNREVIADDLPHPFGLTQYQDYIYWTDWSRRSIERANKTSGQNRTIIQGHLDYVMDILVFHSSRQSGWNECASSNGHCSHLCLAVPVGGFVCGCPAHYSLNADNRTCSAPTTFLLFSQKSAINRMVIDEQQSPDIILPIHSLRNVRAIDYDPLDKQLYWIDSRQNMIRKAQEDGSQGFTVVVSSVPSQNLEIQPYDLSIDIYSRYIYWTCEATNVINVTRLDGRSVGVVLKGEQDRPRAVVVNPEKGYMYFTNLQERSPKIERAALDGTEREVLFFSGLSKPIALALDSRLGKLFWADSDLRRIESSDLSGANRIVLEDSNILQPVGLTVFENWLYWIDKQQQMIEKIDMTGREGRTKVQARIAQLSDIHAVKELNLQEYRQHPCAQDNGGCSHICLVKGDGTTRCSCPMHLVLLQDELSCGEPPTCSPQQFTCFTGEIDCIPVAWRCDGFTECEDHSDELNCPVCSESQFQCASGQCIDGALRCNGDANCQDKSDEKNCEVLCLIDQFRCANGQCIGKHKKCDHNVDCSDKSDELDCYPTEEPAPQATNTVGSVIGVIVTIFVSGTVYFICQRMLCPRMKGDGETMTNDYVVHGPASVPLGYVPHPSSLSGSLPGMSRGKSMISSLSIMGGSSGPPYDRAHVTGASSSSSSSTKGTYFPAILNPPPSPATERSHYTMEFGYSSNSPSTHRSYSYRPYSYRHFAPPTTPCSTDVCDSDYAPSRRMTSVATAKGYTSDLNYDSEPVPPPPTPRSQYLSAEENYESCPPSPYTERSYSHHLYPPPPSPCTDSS
T2 sequence (O75197 32-1615): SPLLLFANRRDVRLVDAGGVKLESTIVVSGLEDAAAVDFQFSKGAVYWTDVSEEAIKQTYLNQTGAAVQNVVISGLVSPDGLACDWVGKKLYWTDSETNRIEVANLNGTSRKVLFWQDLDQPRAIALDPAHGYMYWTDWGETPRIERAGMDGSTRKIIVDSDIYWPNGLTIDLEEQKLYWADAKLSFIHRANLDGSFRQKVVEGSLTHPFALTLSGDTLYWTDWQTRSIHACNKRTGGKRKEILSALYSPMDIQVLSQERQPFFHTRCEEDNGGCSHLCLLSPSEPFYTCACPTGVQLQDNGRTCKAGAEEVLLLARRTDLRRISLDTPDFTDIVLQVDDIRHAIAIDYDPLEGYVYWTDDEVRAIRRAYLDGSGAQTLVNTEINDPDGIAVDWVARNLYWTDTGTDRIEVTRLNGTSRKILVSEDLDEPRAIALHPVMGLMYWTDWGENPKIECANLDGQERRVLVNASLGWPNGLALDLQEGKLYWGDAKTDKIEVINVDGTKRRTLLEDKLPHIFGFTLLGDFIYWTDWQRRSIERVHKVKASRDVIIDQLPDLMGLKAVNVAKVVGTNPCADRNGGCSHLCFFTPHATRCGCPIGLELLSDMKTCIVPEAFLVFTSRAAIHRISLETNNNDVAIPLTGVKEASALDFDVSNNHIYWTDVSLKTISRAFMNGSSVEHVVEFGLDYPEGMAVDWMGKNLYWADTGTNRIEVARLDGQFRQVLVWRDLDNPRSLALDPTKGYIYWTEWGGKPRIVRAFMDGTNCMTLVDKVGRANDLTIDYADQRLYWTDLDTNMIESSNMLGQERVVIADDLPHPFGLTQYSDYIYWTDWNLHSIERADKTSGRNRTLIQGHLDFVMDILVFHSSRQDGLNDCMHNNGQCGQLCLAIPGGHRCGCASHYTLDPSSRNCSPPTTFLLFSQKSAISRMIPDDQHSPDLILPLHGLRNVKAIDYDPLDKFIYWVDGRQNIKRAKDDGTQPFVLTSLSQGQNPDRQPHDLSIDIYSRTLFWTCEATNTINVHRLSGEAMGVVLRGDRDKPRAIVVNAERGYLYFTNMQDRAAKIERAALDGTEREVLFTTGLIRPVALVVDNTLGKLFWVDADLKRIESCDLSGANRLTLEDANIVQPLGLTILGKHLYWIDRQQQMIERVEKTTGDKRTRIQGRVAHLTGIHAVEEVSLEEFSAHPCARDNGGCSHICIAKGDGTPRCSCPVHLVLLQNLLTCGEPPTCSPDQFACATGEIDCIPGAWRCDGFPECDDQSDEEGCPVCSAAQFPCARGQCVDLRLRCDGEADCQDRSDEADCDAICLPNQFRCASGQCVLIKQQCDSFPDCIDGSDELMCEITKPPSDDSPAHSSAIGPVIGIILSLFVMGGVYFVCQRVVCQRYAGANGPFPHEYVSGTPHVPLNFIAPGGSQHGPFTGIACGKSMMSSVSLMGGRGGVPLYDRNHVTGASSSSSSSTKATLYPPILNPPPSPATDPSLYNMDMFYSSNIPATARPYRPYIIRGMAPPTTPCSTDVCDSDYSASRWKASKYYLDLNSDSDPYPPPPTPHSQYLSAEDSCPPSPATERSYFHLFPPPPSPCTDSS

B1: FBXW5 (other, not shown: small tags and cut ends)
chain: MDEGGTPLLPDSLVYQIFLSLGPADVLAAGLVCRQWQAVSRDEFLWREQFYRYYQVARDVPRHPAAMSWYEEFQRLYDTVPCVEVQTLREHTDQVLHLSFSHSGYQFASCSKDCTVKIWSNDLTISLLHSADMRPYNWSYTQFSQFNKDDSLLLASGVFLGPHNSSSGEIAVISLDSFALLSRVRNKPYDVFGCWLTETSLISGNLHRIGDITSCSVLWLNNAFQDVESENVNVVKRLFKIQNLNASTVRTVMVADCSRFDSPDLLLEAGDPATSPCRIFDLGSDNEEVVAGPAPAHAKEGLRHFLDRVLEGRAQPQLSERMLETKVAELLAQGHTKPPERSATGAKSKYLIFTTGCLTYSPHQIGIKQILPHQMTTAGPVLGEGRGSDAFFDALDHVIDIHGHIIGMGLSPDNRYLYVNSRAWPNGAVVADPMQPPPIAEEIDLLVFDLKTMREVRRALRAHRAYTPNDECFFIFLDVSRDFVASGAEDRHGYIWDRHYNICLARLRHEDVVNSVVFSPQEQELLLTASDDATIKAWRSPRTMRVLQAPRPRPRTFFSWLASQRR
notes: TAP-MS bait
B1: the binding result (in assay [1]; with LRP5 (endogenous); in the assay with LRP6 (endogenous)) was “no binding” each time.

B2: eEF2K (enzyme, not shown: small tags and cut ends)
chain: ADEDLIFRLEGVDGGQSPRAGHDGDSDGDSDDEEGYFICPITDDPSSNQNVNSKVNKYYSNLTKSERYSSSGSPANSFHFKEAWKHAIQKAKHMPDPWAEFHLEDIATERATRHRYNAVTGEWLDDEVLIKMASQPFGRGAMRECFRTKKLSNFLHAQQWKGASNYVAKRYIEPVDRDVYFEDVRLQMEAKLWGEEYNRHKPPKQVDIMQMCIIELKDRPGKPLFHLEHYIEGKYIKYNSNSGFVRDDNIRLTPQAFSHFTFERSGHQLIVVDIQGVGDLYTDPQIHTETGTDFGDGNLGVRGMALFFYSHACNRICESMGLAPFDLSPRERDAVNQNTKLLQSAKTILRGTEEKCGSPQVRTLSGSRPPLLRPLSENSGDENMSDVTFDSLPSSPSSATPHSQKLDHLHWPVFSDLDNMASRDHDHLDNHRESENSGDSGYPSEKRGELDDPEPREHGHSYSNRKYESDEDSLGSSGRVCVEKWNLLNSSRLHLPRASAVALEVQRLNALDLEKKIGKSILGKVHLAMVRYHEGGRFCEKGEEWDQESAVFHLEHAANLGELEAIVGLGLMYSQLPHHILADVSLKETEENKTKGFDYLLKAAEAGDRQSMILVARAFDSGQNLSPDRCQDWLEALHWYNTALEMTDCDEGGEYDGMQDEPRYMMLAREAEMLFTGGYGLEKDPQRSGDLYTQAAEAAMEAMKGRLANQYYQKAEEAWAQMEE
notes: TAP-MS bait
Take B2: the binding result (in assay [1]; in the assay with LRP5 (endogenous); with LRP6 (endogenous)) was “no binding” in each case.

B3: FLAG/HA-tagged Lgr5 (receptor, human, UniProt O75473 22-907, looked up)
chain: GSSPRSGVLLRGCPTHCHCEPDGRMLLRVDCSDLGLSELPSNLSVFTSYLDLSMNNISQLLPNPLPSLRFLEELRLAGNALTYIPKGAFTGLYSLKVLMLQNNQLRHVPTEALQNLRSLQSLRLDANHISYVPPSCFSGLHSLRHLWLDDNALTEIPVQAFRSLSALQAMTLALNKIHHIPDYAFGNLSSLVVLHLHNNRIHSLGKKCFDGLHSLETLDLNYNNLDEFPTAIRTLSNLKELGFHSNNIRSIPEKAFVGNPSLITIHFYDNPIQFVGRSAFQHLPELRTLTLNGASQITEFPDLTGTANLESLTLTGAQISSLPQTVCNQLPNLQVLDLSYNLLEDLPSFSVCQKLQKIDLRHNEIYEIKVDTFQQLLSLRSLNLAWNKIAIIHPNAFSTLPSLIKLDLSSNLLSSFPITGLHGLTHLKLTGNHALQSLISSENFPELKVIEMPYAYQCCAFGVCENAYKISNQWNKGDNSSMDDLHKKDAGMFQAQDERDLEDFLLDFEEDLKALHSVQCSPSPGPFKPCEHLLDGWLIRIGVWTIAVLALTCNALVTSTVFRSPLYISPIKLLIGVIAAVNMLTGVSSAVLAGVDAFTFGSFARHGAWWENGVGCHVIGFLSIFASESSVFLLTLAALERGFSVKYSAKFETKAPFSSLKVIILLCALLALTMAAVPLLGGSKYGASPLCLPLPFGEPSTMGYMVALILLNSLCFLMMTIAYTKLYCNLDKGDLENIWDCSMVKHIALLLFTNCILNCPVAFLSFSSLINLTFISPEVIKFILLVVVPLPACLNPLLYILFNPHFKEDLVSLRKQTYVWTRSKHPSLMSINSDDVEKQSCDSTQALVTFTSSSITYDLPPSSVPSPAYPVTESCHLSSVAFVPCL
notes: whole, on cells; also called Lgr5 bait; FH-tagged human Lgr5; not shown: FLAG/HA double tag
B3: in assay [2], the binding result is listed as “no binding”.

B4: UCHL1 (enzyme, not shown: small tags and cut ends)
chain: MQLKPMEINPEMLNKVLSRLGVAGQWRFVDVLGLEEESLGSVPAPACALLLLFPLTAQHENFRKKQIEELKGQEVSPKVYFMKQTIGNSCGTIGLIHAVANNQDKLGFEDGSVLKQFLSETEKMSPEDRAKCFEKNEAIQAAHDAVAQEGQCRVDDKVNFHFILFNNVDGHLYELDGRMPFPVNHGASSEDTLLKDAAKVCREFTEREQGEVRFSAVALC
notes: TAP-MS bait
In the case of B4, the binding result (in assay [1]; with LRP5 (endogenous); in the assay with LRP6 (endogenous)) was “no binding” each time.

B5: FBXW4 (other, not shown: small tags and cut ends)
chain: MAAAAGEEEEEEEAARESAARPAAGPALWRLPEELLLLICSYLDMRALGRLAQVCRWLRRFTSCDLLWRRIARASLNSGFTRLGTDLMTSVPVKERVKVSQNWRLGRCREGILLKWRCSQMPWMQLEDDSLYISQANFILAYQFRPDGASLNRRPLGVFAGHDEDVCHFVLANSHIVSAGGDGKIGIHKIHSTFTVKYSAHEQEVNCVDCKGGIIVSGSRDRTAKVWPLASGRLGQCLHTIQTEDRVWSIAISPLLSSFVTGTACCGHFSPLRIWDLNSGQLMTHLGSDFPPGAGVLDVMYESPFTLLSCGYDTYVRYWDLRTSVRKCVMEWEEPHDSTLYCLQTDGNHLLATGSSYYGVVRLWDRRQRACLHAFPLTSTPLSSPVYCLRLTTKHLYAALSYNLHVLDFQNP
notes: TAP-MS bait
Consider B5, for which the binding result (in assay [1]; in the assay with LRP5 (endogenous); with LRP6 (endogenous)) was “no binding” throughout.

B6: EMI1 (other, not shown: small tags and cut ends)
chain: MSRRPCSCALRPPRCSCSASPSAVTAAGRPRPSDSCKEESSTLSVKMKCDFNCNHVHSGLKLVKPDDIGRLVSYTPAYLEGSCKDCIKDYERLSCIGSPIVSPRIVQLETESKRLHNKENQHVQQTLNSTNEIEALETSRLYEDSGYSSFSLQSGLSEHEEGSLLEENFGDSLQSCLLQIQSPDQYPNKNLLPVLHFEKVVCSTLKKNAKRNPKVDREMLKEIIARGNFRLQNIIGRKMGLECVDILSELFRRGLRHVLATILAQLSDMDLINVSKVSTTWKKILEDDKGAFQLYSKAIQRVTENNNKFSPHASTREYVMFRTPLASVQKSAAQTSLKKDAQTKLSNQGDQKGSTYSRHNEFSEVAKTLKKNESLKACIRCNSPAKYDCYLQRATCKREGCGFDYCTKCLCNYHTTKDCSDGKLLKASCKIGPLPGTKKSKKNLRRL
notes: TAP-MS bait
In the case of B6, the binding result (in assay [1]; with LRP5 (endogenous); with LRP6 (endogenous)) was “no binding” each time.

B7: FBXL2 (other, not shown: small tags and cut ends)
chain: MVFSNNDEGLINKKLPKELLLRIFSFLDIVTLCRCAQISKAWNILALDGSNWQRIDLFNFQTDVEGRVVENISKRCGGFLRKLSLRGCIGVGDSSLKTFAQNCRNIEHLNLNGCTKITDSTCYSLSRFCSKLKHLDLTSCVSITNSSLKGISEGCRNLEYLNLSWCDQITKDGIEALVRGCRGLKALLLRGCTQLEDEALKHIQNYCHELVSLNLQSCSRITDEGVVQICRGCHRLQALCLSGCSNLTDASLTALGLNCPRLQILEAARCSHLTDAGFTLLARNCHELEKMDLEECILITDSTLIQLSIHCPKLQALSLSHCELITDDGILHLSNSTCGHERLRVLELDNCLLITDVALEHLENCRGLERLELYDCQQVTRAGIKRMRAQLPHVKVHAYFAPVTPPTAVAGSGQRLCRCCVIL
notes: TAP-MS bait
For the molecule B7, the binding result (in assay [1]; with LRP5 (endogenous); with LRP6 (endogenous)) was “no binding” each time.

B8: double (Flag-HA)-tagged version of human Dkk1 (Dkk1-FH) (ligand, UniProt O94907 32-266, looked up)
chain: TLNSVLNSNAIKNLPPPLGGAAGHPGSAVSAAPGILYPGGNKYQTIDNYQPYPCAEDEECGTDEYCASPTRGGDAGVQICLACRKRRKRCMRHAMCCPGNYCKNGICVSSDQNHFRGEIEETITESFGNDHSTLDGYSRRTTLSSKMYHTKGQEGSVCLRSSDCASGLCCARHFWSKICKPVLKEGQVCTKHRRKGSHGLEIFQRCYCGEGLSCRIQKDHHQASNSSRLHTCQRH
notes: not shown: Flag-HA double tag
With B8, the binding result in assay [3] is given as “no binding (tested: 1 µg/ml)”.

B9: KCTD21 (other, not shown: small tags and cut ends)
chain: MSDPITLNVGGKLYTTSLATLTSFPDSMLGAMFSGKMPTKRDSQGNCFIDRDGKVFRYILNFLRTSHLDLPEDFQEMGLLRREADFYQVQPLIEALQEKEVELSKAEKNAMLNITLNQRVQTVHFTVREAPQIYSLSSSSMEVFNANIFSTSCLFLKLLGSKLFYCSNGNLSSITSHLQDPNHLTLDWVANVEGLPEEEYTKQNLKRLWVVPANKQINSFQVFVEEVLKIALSDGFCIDSSHPHALDFMNNKIIRLIRYR
notes: TAP-MS bait
With B9, the binding result (in assay [1]; with LRP5 (endogenous); in the assay with LRP6 (endogenous)) was “no binding” in each case.
